Assay results published in PMC10881165.

Molecular target: α-synuclein 1-140 (UniProt P37840)
Experiment: membrane pelleting, Western blot of dimers/trimers
Settings: reference: WT (unphosphorylated) α-synuclein; sites S129

other: oligomer/monomer ratio: stronger; reference 0.22 ± 0.07
Substance: α-synuclein 1-140 (from UniProt P37840) pS129 α-synuclein
